Measured values from publication PMC3350560.

B1: probe A (oligo A) (dsDNA)
DNA 1: GATTTGCGTTTTAGAGGCTATAGGCTCTTGAAACTCTCCA
DNA 2: TGGAGAGTTTCAAGAGCCTATAGCCTCTAAAACGCAAATC
B2: probe C (oligo C) (dsDNA)
DNA 1: GGCAAACAGCAGGAATTCCTAAAAAATTCGAAAAGGTTTCT
DNA 2: AGAAACCTTTTCGAATTTTTTAGGAATTCCTGCTGTTTGCC
B3: probe D (oligo D) (dsDNA)
DNA 1: CAATGATTTGCGTTTTAG
DNA 2: CTAAAACGCAAATCATTG

Target: rCKAP4 (recombinant CKAP4 extracellular domain) (UniProt Q07065 126-501)
Assay: EMSA

Sequence of rCKAP4 (recombinant CKAP4 extracellular domain) (Q07065 126-501): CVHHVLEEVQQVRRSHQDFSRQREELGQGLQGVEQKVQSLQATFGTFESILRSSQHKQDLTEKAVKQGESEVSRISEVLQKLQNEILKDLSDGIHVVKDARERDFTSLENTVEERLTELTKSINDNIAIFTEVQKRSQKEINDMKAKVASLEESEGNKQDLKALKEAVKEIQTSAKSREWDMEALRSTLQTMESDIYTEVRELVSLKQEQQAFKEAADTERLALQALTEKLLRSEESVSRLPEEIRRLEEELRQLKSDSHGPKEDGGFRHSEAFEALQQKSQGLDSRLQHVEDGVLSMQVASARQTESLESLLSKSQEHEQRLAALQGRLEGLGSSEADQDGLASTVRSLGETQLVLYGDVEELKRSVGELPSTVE

| Binder | binding result |
| --- | --- |
| B1 | binds |
| B2 | no binding |
| B3 | no binding |
